US20080182978A1, “ANTI-NGF ANTIBODIES AND METHODS USING SAME” (RINAT NEUROSCIENCE CORP, priority 2002, published 2008)

What was measured:
human NGF [1] = target: T1, human NGF (Homo sapiens, UniProt P01138); experiment: BIAcore affinity determination assay (kon, koff, KD of purified Fabs); format: binding; details: Fab on immobilized human NGF
Protocol: Affinities of anti-NGF Fabs and monoclonal antibodies were determined using the BIAcore300™ surface plasmon resonance (SPR) system (BIAcore, INC, Piscaway N.J.). CM5 chips were activated with N-ethyl-N′-(3-dimethylaminopropyl)-carbodimide hydrochloride (EDC) and N-hydroxysuccinimide (NHS) according to the supplier's instructions. Human NGF was diluted into 10 mM sodium acetate pH 4.0 and injected over the activated chip at a concentration of 0.005 mg/mL. Using variable flow time across the individual chip channels, two ranges of antigen density were achieved: 100-200 response units (RU) for detailed kinetic studies and 500-600 RU for screening assays. The chip was blocked with ethanolamine. […] HBS-EP buffer (0.01M HEPES, pH 7.4, 0.15 NaCl, 3 mM EDTA, 0.005% Surfactant […]) was used as running buffer for all the BIAcore assays.
Serial dilutions (0.1-10× estimated KD) of purified Fab samples were injected for 1 min at 100 μL/min and dissociation times of up to 2 h were allowed. The concentrations of the Fab proteins were determined by ELISA and/or SDS-PAGE electrophoresis using as a standard a Fab of known concentration (as determined by amino acid analysis). Kinetic association rates (kon) and dissociation rates (koff) were obtained simultaneously by fitting the data to a 1:1 Langmuir binding model (Karlsson, R. Roos, H. Fagerstam, L. Petersson, B. (1994). Methods Enzymology 6. 99-110) using the BIAevaluation program. Equilibrium dissociation constant (KD) values were calculated as koff/kon.
The binding affinities to human NGF of Fabs E3 and 3C were measured using BIAcore analysis according to the manufacturer's instructions and as described above, except that 100 RU NGF was used on chip to prevent a rebinding effect. Briefly, several concentrations of antibodies (Fabs) were injected for 2 minutes onto a CM5 chip with 100 RU of immobilized human NGF on it, and permitted to dissociate for 1800 seconds. Mouse antibody 911 (Fab) was analyzed as a control. Data was analyzed using BIAevaluation software following the manufacturer's instructions. E3 bound human NGF with a KD of approximately 0.07 nM (and with a kon of about 6.0e5 M-1s-1, and a koff of about 4.2e-5s-1).

[2] = target: interaction of human NGF with trkA (Homo sapiens, UniProt P01138); experiment: BIAcore: blocking of NGF binding to trkA on chip; details: 2.5 nM human NGF preincubated one hour; Fab concentration equal to NGF concentration
Protocol: (§1) Antibody E3 (interchangeably termed 3E) was selected for further analysis based on the high binding affinity. To test the ability of E3 to prevent the interaction of NGF with the NGF receptors trkA and p75, 2.5 nM of human NGF was premixed and incubated for one hour with 0 to 50 nM of antibody E3 (Fab). After the incubation, samples were injected at 10 ul/minute on a BIAcore CM5 chip containing 260 RU of p75 (channel 2) and 600 RU of trkA (channel 3), and percent binding was determined.

[3] = target: interaction of human NGF with p75 (Homo sapiens, UniProt P01138); experiment: BIAcore: blocking of NGF binding to p75 on chip; details: 2.5 nM human NGF preincubated one hour; Fab concentration equal to NGF concentration
Protocol: as §1

human NGF [4] = target: T1, human NGF; experiment: Mouse E17/18 trigeminal neuron survival assay, NGF; format: cell-based; details: saturating NGF (400 pM); 48 hours
Protocol: (§2) The ability of antibody E3 to specifically block NGF activity was evaluated by measurement of the capacity of the antibody to inhibit survival of mouse E17/18 trigeminal neurons in vitro in the presence of saturating concentrations of NGF, the NGF-related neurotrophin NT3, or the NGF-unrelated neurotrophic factor, macrophage stimulating protein (MSP). The survival of mouse E17/18 trigeminal neurons is a sensitive assay to evaluate the NGF-blocking activity of anti-NGF antagonist antibodies because NGF is required to support survival of these neurons at higher concentrations than the level of NGF required to support survival of E13.5 TG neurons).
(§3) The survival assay was conducted as follows: time mated pregnant Swiss Webster female mice were euthanised by CO2 inhalation. The uterine horns were removed and the embryos (at embryonic day 17 or 18) were extracted and decapitated. The trigeminal and nodose ganglia were dissected and cleaned. The ganglia were then trypsinised, mechanically dissociated and plated at a density of 100-300 cells per well in defined, serum-free medium in 4-well plates (Greiner) coated with poly-L-ornithine and laminin.
(§4) E17/18 trigeminal neurons were grown either without added neurotrophic factors (negative control) or in the presence of saturating concentrations of human NGF (400 pM and 15 pM) (positive control); NT3 (400 pM); or MSP (600 pM). […]

NT3 = target: T2, NT3 (Homo sapiens, UniProt P20783); experiment: Mouse E17/18 trigeminal neuron survival assay, NT3; format: cell-based; details: saturating NT3; antibody up to 200 nM; 48 hours
T2 sequence (P20783 139-257): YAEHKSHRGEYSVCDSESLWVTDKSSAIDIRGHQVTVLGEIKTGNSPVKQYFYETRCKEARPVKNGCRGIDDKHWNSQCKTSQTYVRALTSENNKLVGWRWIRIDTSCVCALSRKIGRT
Protocol: as §2, §3, §4

[5] = target: macrophage stimulating protein (MSP) (Homo sapiens, UniProt P26927); experiment: Mouse E17/18 trigeminal neuron survival assay, MSP; format: cell-based; details: MSP 600 pM; antibody up to 200 nM; 48 hours
Protocol: as §2, §3, §4

BDNF = target: T3, BDNF (Homo sapiens, UniProt P23560); experiment: Mouse E17 nodose neuron survival assay, BDNF; format: cell-based; details: BDNF 400 pM; antibody up to 200 nM; 48 hours
T3 sequence (P23560 129-247): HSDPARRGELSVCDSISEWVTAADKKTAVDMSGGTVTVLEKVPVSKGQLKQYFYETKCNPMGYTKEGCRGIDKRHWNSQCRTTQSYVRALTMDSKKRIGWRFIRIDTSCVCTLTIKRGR
Protocol: (§5) The ability of antibody E3 to specifically block NGF activity was also evaluated by measurement of the capacity of the antibody to inhibit survival of mouse nodose E17 neurons in the presence of saturating concentrations of BDNF or NT4/5. Survival of nodose neurons is supported by BDNF or NT4/5; therefore, survival of these neurons is a sensitive assay to evaluate the BDNF or NT4/5-blocking ability of the anti-NGF antagonist antibody.
as §3
(§6) E17 nodose neurons were grown either in the absence of added neurotrophic factors (negative control), or with saturating concentrations of BDNF (400 pM) (positive control) or NT4/5 (400 pM) or NGF unrelated growth factor […]. High concentrations of neurotrophins were used, as the goal of this experiment was to test specificity of the antibodies. […]

NT4/5 = target: T4, NT4/5 (Homo sapiens, UniProt P34130); experiment: Mouse E17 nodose neuron survival assay, NT4/5; format: cell-based; details: NT4/5 400 pM; antibody up to 200 nM; 48 hours
T4 sequence (P34130 81-210): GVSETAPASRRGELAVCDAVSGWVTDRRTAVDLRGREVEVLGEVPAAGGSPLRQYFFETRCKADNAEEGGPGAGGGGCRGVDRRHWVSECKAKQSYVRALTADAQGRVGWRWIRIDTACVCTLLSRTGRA
Protocol: as §5, §3, §6

LIF = LIF (Homo sapiens, UniProt P15018); experiment: Mouse E17 nodose neuron survival assay, LIF; format: cell-based; details: LIF 2.5 nM; antibody up to 200 nM; 48 hours
Protocol: as §5, §3, §6

T1 sequence (P01138 122-241): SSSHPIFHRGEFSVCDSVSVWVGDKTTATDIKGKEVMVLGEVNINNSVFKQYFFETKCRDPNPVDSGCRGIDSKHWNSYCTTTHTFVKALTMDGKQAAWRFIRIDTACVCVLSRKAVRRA
Chain of interaction of human NGF with trkA (P01138 122-241): as above
Chain of interaction of human NGF with p75 (P01138 122-241): as above
Chain of LIF (P15018 23-202, species assumed): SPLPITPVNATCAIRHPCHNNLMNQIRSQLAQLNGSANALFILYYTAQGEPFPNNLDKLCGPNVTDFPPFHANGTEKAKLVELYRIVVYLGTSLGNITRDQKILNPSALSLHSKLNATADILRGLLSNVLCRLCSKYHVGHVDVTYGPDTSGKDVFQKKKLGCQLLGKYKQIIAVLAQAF
Chain of macrophage stimulating protein (MSP) (P26927 19-711, species assumed): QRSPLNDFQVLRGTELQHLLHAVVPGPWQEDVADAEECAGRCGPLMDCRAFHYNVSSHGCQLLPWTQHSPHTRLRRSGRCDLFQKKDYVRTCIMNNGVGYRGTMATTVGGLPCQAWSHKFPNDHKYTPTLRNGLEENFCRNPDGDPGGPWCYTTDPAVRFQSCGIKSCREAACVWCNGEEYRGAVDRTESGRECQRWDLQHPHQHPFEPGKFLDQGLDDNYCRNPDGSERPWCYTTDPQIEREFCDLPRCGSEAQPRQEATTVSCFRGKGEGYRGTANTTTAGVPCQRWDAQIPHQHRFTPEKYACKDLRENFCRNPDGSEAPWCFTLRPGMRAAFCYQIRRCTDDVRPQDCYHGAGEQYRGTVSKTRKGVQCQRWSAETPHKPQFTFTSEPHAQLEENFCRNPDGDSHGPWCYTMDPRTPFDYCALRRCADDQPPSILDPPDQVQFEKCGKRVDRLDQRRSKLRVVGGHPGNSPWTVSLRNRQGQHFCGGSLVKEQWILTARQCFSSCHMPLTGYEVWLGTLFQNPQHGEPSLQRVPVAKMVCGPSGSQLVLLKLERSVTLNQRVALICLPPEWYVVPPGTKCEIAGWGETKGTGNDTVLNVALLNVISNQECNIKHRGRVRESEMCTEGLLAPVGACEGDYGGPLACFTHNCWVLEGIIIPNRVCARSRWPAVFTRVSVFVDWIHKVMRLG

B1: E3 (Fab): Fab fragment of humanized anti-NGF antibody E3 (antibody, V domains shown)
VH: QVQLQESGPGLVKPSETLSLTCTVSGFSLIGYDLNWIRQPPGKGLEWIGIIWGDGTTDYNSAVKSRVTISKDTSKNQFSLKLSSVTAADTAVYYCARGGYWYATSYYFDYWGQGTLVTVS
VL: DIQMTQSPSSLSASVGDRVTITCRASQSISNNLNWYQQKPGKAPKLLIYYTSRFHSGVPSRFSGSGSGTDFTFTISSLQPEDIATYYCQQEHTLPYTFGQGTKLEIKRT
**Q.** Which koff (human NGF [1]) does the source give for B1 here?
**A.** The koff was <4e-05 s⁻¹.

**Q.** And the kon (human NGF [1])?
**A.** The kon was 600000 M⁻¹ s⁻¹.

**Q.** And the “NGF binding to trkA (percent maximum RU)” value [2]?
**A.** The value was “no NGF binding was observed”.

**Q.** What about the “NGF binding to p75 (percent maximum RU)” value [3] of the same molecule?
**A.** The value was “no NGF binding was observed”.

**Q.** And the “survival of E17/18 trigeminal neurons promoted by NGF” value (human NGF [4])?
**A.** The value was “totally blocked”.

**Q.** And the “survival of E17/18 trigeminal neurons promoted by NT3” value (NT3)?
**A.** The value was “did not inhibit”.

**Q.** What about the “survival of E17/18 trigeminal neurons promoted by MSP” value [5] of the same molecule?
**A.** The value was “did not inhibit”.

**Q.** What about the “survival of E17 nodose neurons promoted by BDNF” value (BDNF) of the same molecule?
**A.** The value was “did not inhibit”.

**Q.** What about the “survival of E17 nodose neurons promoted by NT4/5” value (NT4/5) of the same molecule?
**A.** Its value is “did not inhibit”.

**Q.** What about the “survival of E17 nodose neurons promoted by LIF” value (LIF) of the same molecule?
**A.** The value was “did not inhibit”.
